B1: GRB2-associated-binding protein 1 (Homo sapiens), Q13480 (parent)
chain: MSGGEVVCSGWLRKSPPEKKLKRYAWKRRWFVLRSGRLTGDPDVLEYYKNDHAKKPIRIIDLNLCQQVDAGLTFNKKEFENSYIFDINTIDRIFYLVADSEEEMNKWVRCICDICGFNPTEEDPVKPPGSSLQAPADLPLAINTAPPSTQADSSSATLPPPYQLINVPPHLETLGIQEDPQDYLLLINCQSKKPEPTRTHADSAKSTSSETDCNDNVPSHKNPASSQSKHGMNGFFQQQMIYDSPPSRAPSASVDSSLYNLPRSYSHDVLPKVSPSSTEADGELYVFNTPSGTSSVETQMRHVSISYDIPPTPGNTYQIPRTFPEGTLGQTSKLDTIPDIPPPRPPKPHPAHDRSPVETCSIPRTASDTDSSYCIPTAGMSPSRSNTISTVDLNKLRKDASSQDCYDIPRAFPSDRSSSLEGFHNHFKVKNVLTVGSVSSEELDENYVPMNPNSPPRQHSSSFTEPIQEANYVPMTPGTFDFSSFGMQVPPPAHMGFRSSPKTPPRRPVPVADCEPPPVDRNLKPDRKVKPAPLEIKPLPEWEELQAPVRSPITRSFARDSSRFPMSPRPDSVHSTTSSSDSHDSEENYVPMNPNLSSEDPNLFGSNSLDGGSSPMIKPKGDKQVEYLDLDLDSGKSTPPRKQKSSGSGSSVADERVDYVVVDQQKTLALKSTREAWTDGRQSTESETPAKSVK
partner: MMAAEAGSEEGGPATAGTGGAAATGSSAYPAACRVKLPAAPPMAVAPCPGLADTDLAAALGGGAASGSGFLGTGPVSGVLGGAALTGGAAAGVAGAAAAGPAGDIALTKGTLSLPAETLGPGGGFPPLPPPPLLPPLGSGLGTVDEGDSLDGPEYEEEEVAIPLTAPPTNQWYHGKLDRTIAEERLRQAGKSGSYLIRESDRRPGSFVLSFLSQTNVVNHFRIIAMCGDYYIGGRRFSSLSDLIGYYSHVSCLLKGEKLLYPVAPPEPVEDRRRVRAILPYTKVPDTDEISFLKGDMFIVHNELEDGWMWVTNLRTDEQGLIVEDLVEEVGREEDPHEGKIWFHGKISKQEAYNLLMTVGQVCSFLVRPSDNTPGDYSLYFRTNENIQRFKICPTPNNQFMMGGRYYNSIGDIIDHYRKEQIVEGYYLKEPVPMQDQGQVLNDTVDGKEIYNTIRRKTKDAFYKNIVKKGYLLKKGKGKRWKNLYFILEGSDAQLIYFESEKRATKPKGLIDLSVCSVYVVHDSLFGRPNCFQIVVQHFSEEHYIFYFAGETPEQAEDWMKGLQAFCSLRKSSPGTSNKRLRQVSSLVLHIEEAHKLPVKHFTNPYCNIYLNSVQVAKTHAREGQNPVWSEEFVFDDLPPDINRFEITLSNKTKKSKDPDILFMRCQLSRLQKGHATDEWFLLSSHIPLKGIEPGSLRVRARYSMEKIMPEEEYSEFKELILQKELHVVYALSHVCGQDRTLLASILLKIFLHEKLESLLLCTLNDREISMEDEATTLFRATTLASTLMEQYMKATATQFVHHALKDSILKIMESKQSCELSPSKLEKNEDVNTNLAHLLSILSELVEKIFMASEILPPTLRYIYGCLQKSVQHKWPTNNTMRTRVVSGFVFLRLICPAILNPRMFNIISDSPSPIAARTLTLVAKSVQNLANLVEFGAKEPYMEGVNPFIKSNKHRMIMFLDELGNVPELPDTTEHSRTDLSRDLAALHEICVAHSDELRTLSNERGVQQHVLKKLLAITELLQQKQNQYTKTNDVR

Variants of: B1
Conditions: with rasa1_rat Rasa1, P50904

Variant	effect of a mutation on the interaction
P320S	disrupting interaction strength

Reference: IntAct's records for PubMed 31585087
